Assay results published in the DeepSol protein solubility set.

Assay: soluble on expression in E. coli; label from the status in PepcDB or PDB records

For “MSLDKIFVEEAVSELHTLQDMIRWTVSRFNAANLFYGQGTDNAWDEAVQLILPTLYLPIDVPPHVLSSRLTSSERLRVVERVIKRINDRTPVAYLTNKAWFCGLEFFVDSRVLVPRSPIGELIQNRFEPWLTEEPTRIMDLCTGSGCIAIACANAFPEAEVDAIDISVDALNVAEQNIQDHGLEQQVFPIRSDLFRDLPQEQYDLIVTNPPYVDQEDMDSLPSEFRHEPELGLAAGSDGLKLARRILANAPLYLKENGILVCEVGNSMVHMMEQYPHIPFTWLEFENGGHGVFLLTREQLIDCAADFALYKDEGHHHHHH”, which “soluble on expression in E. coli” value is on record?
Its value is “soluble”.

With “MSLDKNLQTVIHDEHCGTLDFSLGDSRYSGELESGESYTVNFSVNPPEGSSIKVARAYIYWTWSKQGLDGIYPEFKSSLVHSGSSVLLLEEKRYTDTKGFVSRYDFFSGTDVYDLSEDISEAGNYSISLVNAGGDEKTFCVQGAGLLLVYENPDLPQTEYWINEGCDVLYAEYGIDPDMATTTTFFEGDICPENIENARLITVSPSGGYSSGTEARNRLFFNEKTGSIPVIGDIIKLLFAGGKSWKNVYQTNETVQIALDERSVGNYLDSNGNFASIQDNGDYLMATNAILLLEFKEPENPGKRYGEGHHHHHH” as the sequence, how does the “soluble on expression in E. coli” value read?
The value was “not soluble”.

For “MSLDKPVIQIHTDNSSLIFRVADNGRLYQSYLGKKLNHEADISHLPQGTEAYITHGMEDYFEPAIHILHNDGNPSLLLKYVSHETKAVSQGVNETIITLGDDKYPVTVKLHYVTYPAEDIIKTYTEISHKEKKPVVLHQYASSMLHLNRAKYYLTEFSGDWAHEANISDQPLEFGKKVLDTKLGARANMFTPPFFQLSLDQLATENCGEVLVGTLGWTGNFRFTFEVDNKNELRIISGINPYASEYYLPAGVVFRTPDFYFTYSANGKGKASRNFHDWARRYQLKDGDETRMTLLNNWEATYFDFNEEKLIGLIGDAAGLGVDMFLLDDGWFANKYPRSSDHQGLGDWDETADKLPNGIGRLVEEATKKGIKFGLWIEPEMVNPKSELYEKHKDWVIHLPNRDEYYFRNQLVLDLSNPKVQDFVFGVVDDLMTKYPGIAFFKWDCNSPITNIYSSYLKEKQSHLYIDYVRGLYNVLERIKTKYPDLPMMLCSGGSGRIDYETLRYFTEFWPSDNTDPIERLFIQWGYSQLFPAKTLCAHVTTWNHDASIKFRTDVAMMGKLGFDIKLSDLNDNEKKFCRDAVTNYNHLKPVVLEGDMYRLVSPYSGNHTSTQYVGKDKKGAVVFAFDIYSRYGEKLLPVRLQGLDAGRQYRVKEINLMPGTNSSLQGNGELFSGEYLMTVGLNIFTGQRLNSRVIEVVAEEGHHPITTDPNSSSVDKLAAALEHHHHHH”, which “soluble on expression in E. coli” value is on record?
Its value is “soluble”.

For “MSLDKPVLLLGEICVDFTLSTPMSSAKMRLGGVVHAARGLWALNVPYSVAAICPDYLVSEAEAYLYAHGCTNFIQVGTVLGAPNVFLIGDAREVGHQGYENILREAKKVLTFDLDEKLRGFKNIVVYPGTFDFEGIVKNLDSDAKITVDIAYDVNDADELSRVYGASHALAISTSSELFSSLALENLGPLLKACKTRSAKHLLLKENRGGSRLFDLESGESWEIPATLARTVNSVGVGDVYTAVFAALIDHGALTAALRGMQAATRYAQTTFPDDFKRDVQRDEGHHHHHH”, which “soluble on expression in E. coli” value is on record?
Its value is “not soluble”.

With “MSLDLHNDLKSYLSELNTYSHVDKNEIYHSQRAGYMTGGGISIRNGASHTALAQVSLPKFDAGCGGIDIFTGGISFISHDQLIAALKNIASSAQGYAFMLGIETVSPLIASTMKQMETWANAINSLGINSCEVATGLVGSVWPARTAAKQQICRSAKNGGFASSFINARHQCADEGDYAKTMQSMAKDPLYDGMLLEEYNLTWKAVQKHPFLAKKENRKMAEEIMSLTGTLIIRRDKSLVVEPWPSRIYDDSFLPILLEGGTTRVYQCTGGNAKQNCLALEMKELTIPAEQAWKGRIKQALATIQQKILADTPLASEEIDLLSKSRLPLFKIVNVLTAYKREVSPISLYEVAEIVGNEMLIQYLREIIGTVRLAAIQLERGQMYDFDSQKFIEELERVEKVVSRYEERHYQRLEAENQLMLKIETLEQKIASQIILFEGHHHHHH” as the sequence, how does the “soluble on expression in E. coli” value read?
Its value is “not soluble”.

With “MSLDLNDTYSGKREPFSGDHSADGFEVTSRSEMSSGSEISPVSEMPSSSEPSSGADYDYSEEYDNEPQIPGYIVDDSVRVEQVVKPPQNKTESENTSDKPKRKKKGGKNGKNRRNRKKKNPCNAEFQNFCIHGECKYIEHLEAVTCKCQQEYFGERCGEKSMKTHSMIDSSEGHHHHHH” as the sequence, how does the “soluble on expression in E. coli” value read?
Its value is “soluble”.

Which “soluble on expression in E. coli” value does the source give for “MSLDNIIIIQTKNPNYYAIKYAYKNQYEQFYEEELNIRKKLNYPPFNKIIRIIFRSKNEESAKQKCWEFFEKSKEFLQEEIEHLGPSEAIMKKISKNYRYNIIYLSKSYSLLEKLVNKTKEKVKMTSTVYIEIDYYPISEGHHHHHH” here?
Its value is “not soluble”.

Which “soluble on expression in E. coli” value does the source give for “MSLDRKLKGSVEEKTLEYLRKRPEIYMALSTGIVNLNGLAALISKENDGMNQLSIRSVLQKMIRDGLVSDYRKSTDDLLKRSKVTLQDKVSVITSRRKIDIDFLSVTFLTDSVVYIVDETRAKNIPKDALIERNVSLIHIFSPPEIVTTPGFAMNVVQRIYAANVNILQLISCSNETMIVVNRDDAISAYSALTSYEGHHHHHH” here?
The value was “soluble”.

For “MSLDSLYVNDFYKGDRNITKFLKLELEMYDWKLMILHYLGLDHIGHVEGPFSDKVPGKLKEMDKVIKTIYHTMDKWKYYTKPLLVITGDHGMRDSGGHGGSSHAETIVPVVIVSDQCAKSEETFLQIDEGHHHHHH”, which “soluble on expression in E. coli” value is on record?
The value was “not soluble”.

For “MSLDTFGLIQLAELIYEYCGIDFFKNLSSLESKISERLKELGLSCWEYGGYLRVEPKEWDTLIDLITVNETYFFREENLLEEFQKVILPKYKDRTPNNPLRIWSSACSSGEEPYTLAILSEETGLFETGAVEIIASDIDKKVLEKARRGLYNKKSFSFRTMPKEILDKYFISFGDDYKVKDSIRAMVDFRRVNLLDENKLEKVGEVDIVFCRNVLIYFDTKAINKVINSLYKVLRAGGYLFLGHAETITGMNTGFETIYTPSAFYYRKGERHEGHHHHHH”, which “soluble on expression in E. coli” value is on record?
Its value is “soluble”.

Which “soluble on expression in E. coli” value does the source give for “MSLDTQSDYVVVGTGSAGAVVASRLSTDPATTVVALEAGPRDKNRFIGVPAAFSKLFRSEIDWDYLTEPQPELDGREIYWPRGKVLGGSSSMNAMMWVRGFASDYDEWAARAGPRWSYADVLGYFRRIENVTAAWHFVSGDDSGVTGPLHISRQRSPRSVTAAWLAAARECGFAAARPNSPRPEGFCETVVTQRRGARFSTADAYLKPAMRRKNLRVLTGATATRVVIDGDRAVGVEYQSDGQTRIVYARREVVLCAGAVNSPQLLMLSGIGDRDHLAEHDIDTVYHAPEVGCNLLDHLVTVLGFDVEKDSLFAAEKPGQLISYLLRRRGMLTSNVGEAYGFVRSRPELKLPDLELIFAPAPFYDEALVPPAGHGVVFGPILVAPQSRGQITLRSADPHAKPVIEPRYLSDLGGVDRAAMMAGLRICARIAQARPLRDLLGSIARPRNSTELDEATLELALATCSHTLYHPMGTCRMGSDEASVVDPQLRVRGVDGLRVADASVMPSTVRGHTHAPSVLIGEKAADLIRSEGHHHHHH” here?
The value was “soluble”.

With “MSLDYAQRAVQVDPPRRLTHEMDSWARNFVMLRTDVQGRPINRLEGVYVEHFPDDDSYHVTTPRAIGQQAGNPITIGVSKTAIMEQGGQRIVMNGDAHVHRQPDARNETLDVRSQQLILLPDDDVVFTDLPAQVNKGNSRMNGTGMHYNNKTRQLRVSAAADVEIAGTEGRKRQSTETPANSNQNKPEGHHHHHH” as the sequence, how does the “soluble on expression in E. coli” value read?
Its value is “soluble”.

Which “soluble on expression in E. coli” value does the source give for “MSLEAAPAGSGPLRRTFLVPEIKSLDQYDFSRAKAAASLAWVLRAAFGGAEHVPPELWEPFYTDQYAQEHVKPPVTRLLLSAELYCRAWRQALPQLEPSPSPSALLALLARRGTVPSLPEHPVREADLKHQPILMGAHLAVIDALMVAFSFEWTKTLPGPLALSSLEHKLLFWVDTTVRRLQEKTEQEAAQRASPAAPLDGASEGHHHHHH” here?
The value was “not soluble”.

With “MSLEENMEGALFLENESFCEEIPDNPNIEKEKPLEFISSGNLEIDRKLEGGIPVGSLCLLEGAKDSGKSIFMQQIMWGALNQDKKVLALTTEKTSRNLLNNMESLKQDISDYFIIGRSKIFEINASDVEENPEISENLLEIMLECIKECEEELILIDSLTILAVNASENTLLNFFRECIKLCDKKKTILISVHGYAFSQEVLYRLRSVCNSCLELRIEQVGDKLIKTMEIQKLRGAKKTTGNMLSFDVNSECGLKIIPVSKVKAEGHHHHHH” as the sequence, how does the “soluble on expression in E. coli” value read?
Its value is “soluble”.

Which “soluble on expression in E. coli” value does the source give for “MSLEFLEQEGQEVLTKEIKAGFCEITPSSITEQTTKPQLDETQLVDEYVHTKELETTPIPISFATKEVLFEEVFNTPSTQQVDESVLVNEYIELTQQIKNASEQVSSNHTHKFSVATEPAATKAVSETMLLDDYVEMVEQDVQAQTALPQAALDPTVSLTFSSPIDSNAILVYPEMKVPHVFDTVAPTTTTVPLDQTQLLDELVEVPVLTHTVTPAPLQPKAAPTNFALDQTQLVDELVTVPLTHTLVNESAPVTPVVVTSPAAEHSFSITTVDKANLTNALSQTVVIKPAEDSAHQSAVLDKEIATKQAQLQQLQAQIELRQAQLETPPVTYMGVEEYKLLPVQDVVPVQPTVSFEMTLLQEQLDKALKHNAALQIQLEEQLAKPLQYDQSPVLQERIELLQNQNTNLTQELNELQQKLFKSQNNSLLLARLEEENRTLKQHLQNNLPEANQLNFVLEKQLEQLQQDKHSLTLQIEQYKFDSKKHQEQLALIPSLRSEINSLETEVISLKQTNQRLSLIERENNFLKTEIKQLRETKLNDENTKYRNLLKQYELMRADSDAKLKELEHEQHLAHQHHQEQLAQLQRHNEALVKELDQVKATNFELGLAAQGFEQQKVVLEQKNSSLLASLQAAEENVQALGITNSELQNQLNVLEFTHKEKTAFDSKTLTLTKQQLEQTQFDLSLTQEQLATFKQQNQSLTDKLMASETQLNHLQQSDENLTQLQTQHELLQESYNKLQDEANHTQQQFHQAQNELDAAHQQLALFKQNNEELTDKCSNIQNELHDLNRVKTNWENLNTEHNLLQDKYAQQKEQMQHEHSNLAQIQAEHELLQESYNKVKAELNEIQITNLNEANAQYQDLLSAYELLQSNHNKLKQELQVLNQVNLEKQQLAQKLHNTHQSLSQTHAELTQLQAAYNNLQATPPVSDELLEQFNQVQLEKQRLLQQNLALVHELQYFNELNSSQTHEIKTKQDETVKEVIIVEKEIPVPPEKKPRLKKRDIVIENKEDALGKLSKKERIQAYAERLAKINGKQEGHHHHHH” here?
The value was “not soluble”.

With “MSLEFQNLANRILDEKSRSFSQSNQTALETLLKPFREQIEGFQKRVNEIHSESVKGNAGLEAEIKKVLEIGLNMSQEASNLTSALKGEKKTLGNWGEVQLERALQLAGLEENVHYRAQAHFKDEQGGRNYPDFVLNLPDEKHLIIDSKMSLVAYESAVNSEDDFERERLLKEHISALKTHINDLHKKDYSNLIGMCSPNFVLMFIAVEPAYIEALKADPALFNYGYERNVIMVSHTTLMPILRTVANLWRIERGNAEAKEIAEKAGEIYNQICLVAERLNKLGNTLSTVSNQYNSTVTALVGQQGLVGKVERFKTLSAKANKTMPDVDLLNNQLDLARLNVLNQENLQEGHHHHHH” as the sequence, how does the “soluble on expression in E. coli” value read?
The value was “soluble”.

For “MSLEGRRICVDSCPITCITFCAAHTALGPHHGRSGCAVVIRSMDEKLKRVAHAVSDMGLMSKILGESGSSRNTEDYVELNANEFEMTGTELERQVRIARISDKQDVIDIKDAVYDGDVVVADITRHSTQDRTMEHISDELKQVANEVGGDIVQKDDDQLIITPAGVGIARERLGREGHHHHHH”, which “soluble on expression in E. coli” value is on record?
Its value is “soluble”.

For “MSLEGVENKVIVLAGMIGAGKSSYTELIANELGTKAFYESIKDNRILEMFYDDPKRWAFALQIYFLNTRFRSIKAALTDQNNVLDRSIYEDALFTQINFEEGNISEPEMDTYLDLLDNMMEELAYMPKKAPDLLIYLRGSLDTVLSRIALRGRPYEQIDDNPGLLEYYKHLHSRYDSWFASYDKSETLVINIDEIDINKPNDADYVMQLIHEKLKREGHHHHHH”, which “soluble on expression in E. coli” value is on record?
The value was “soluble”.
